B1: USP39 (parent)
chain: FQGSMRIFTKKLPHPDLPAEEKEQ
B2: RAD54B (parent)
chain: YVQEKRDGLKRRQQLEEELLRAKI

Variants of: B1
Assay: protein stability index of a GFP-peptide fusion (GPS, HEK-293T) (PSI 1-6); higher = more stable
Conditions: c terminus: a fixed tail appended
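Further: lentivirally expressed fusions sorted by FACS into six bins by GFP to DsRed ratio, PSI derived from sequencing read proportions per bin multiplied by bin number.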

Protein stability index of substitutions, site by site:
T9: S 1.75, L 1.92, E 3.07, F 1.89, R 2.23, G 2.25, V 1.5, I 1.66, W 2.23, N 2.65, Q 2.19, C 1.69, A 2.04, H 2, P 3.14, Y 1.94, D 2.73, M 2.03, K 2.08
P13: C 2.05, F 1.99, D 1.72, A 2.94, E 1.98
K11: A 1.68, D 2.08, S 1.9, C 3.14, P 1.84, E 2.85, R 2.06, I 1.87, N 2.35, T 1.96, W 1.85, G 1.94, L 1.65, H 1.57, F 1.7, Y 1.71, V 2, Q 1.85, M 1.61
R6: K 1.89, F 1.76, G 1.64, T 2.01, H 1.83, P 2.37, S 3.04, N 1.3, D 1.84, E 1.81, M 2.15, C 1.76, A 1.92, I 2.12, V 1.82, L 2.31, Q 2.22, Y 2.24
S4: T 1.98, Y 2.25, P 2.3, R 2.46, Q 2.25, N 1.79, W 2.04, D 1.33, C 1.39, V 1.95, F 1.1, A 2.33, K 2.37, E 2.28, M 4.08, I 2.27, H 1.69
Q2: E 4.12, G 3.26, I 1.78, K 4.16, D 4.49, R 3.89, C 3.34, H 3.58, L 2.73, Y 2.92, T 2.2, W 2.82, P 1.75, F 2.99, N 2.85, A 2.29, M 3.46, S 2.7
F1: E 5.48, H 4.53, P 4.83, Y 2.11, K 4.9, W 4.78, D 5.37, I 4.17, G 4.66, R 4.95, L 4.29, N 5.22, C 4.82, M 4.19, S 5.04, A 5.07, Q 4.89, T 4.86, V 4.52
M5: H 1.82, G 1.73, W 2.14, F 1.89, N 2.15, P 1.87, R 1.89, L 2.01, Y 1.85, I 1.66, S 1.61, C 2.62, V 2.17, K 2.07, Q 2.29, A 2.1, T 1.61, E 2.5, D 2.11
I7: R 4.38, W 3.05, D 3.85, K 3.69, V 1.99, M 2.44, G 2.89, H 2.97, E 4.04, N 3.65, S 3.38, F 2.94, T 3.01, L 1.84, P 1.93, C 1.8, Y 2.12, Q 3.65, A 2.56
F8: N 3.68, S 3.29, T 3.89, R 3.59, W 1.56, C 3.05, D 4.23, Y 2.35, P 3.42, H 3.33, A 3.6, G 3.48, L 3.28, I 3.17, K 3.64, V 3.04, E 4.01, M 3.52, Q 3.77
G3: W 1.85, S 2.31, Y 2.57, L 2.23, D 1.61, F 1.68, K 3.37, N 2.2, V 2.01, M 2.67, Q 3.51, T 3, C 1.86, E 2.17, I 2.07, A 2.61, R 3.64, H 2.54, P 2.53
L12: Q 2.23, H 2.17, C 2.15, D 2.63, G 1.72, S 2.41, I 1.91, V 1.74, N 2.05, K 1.86, M 2.37, P 2.45, Y 2, F 1.47, T 1.93, W 1.45, A 1.62, R 1.32, E 1.71
K10: I 1.74, H 2.37, C 3.86, N 2.81, V 2.22, Y 1.94, Q 1.84, M 1.37, P 3.29, S 2.44, G 2.2, D 2.07, F 2.03, R 1.61, T 1.19, W 1.81, A 2.08, L 2.53

Variants of: B2
Assay: as above
Conditions: c terminus: a fixed tail appended

Protein stability index of substitutions, site by site:
K23: W 1.59, C 1.79, M 2.62, Q 1.59, N 2.28, I 1.73, H 2.95, S 2.36, T 2.08, E 1.71, G 1.86, D 2.55, P 2.63, Y 1.49, V 2.25, R 2.45, A 1.78, F 1.81, L 3.08
L19: T 1.75, R 2.38, Q 1.78, N 2.14, W 2.17, Y 1.55, P 2.34, M 2.06, S 2.45, V 1.7, K 2.42
A22: G 1.89, E 2.92, W 2, H 1.52, I 2.32, D 2.29, T 1.98, K 1.82, F 2.06, L 1.99, P 1.68, R 1.83, Q 2, C 1.83, V 2.45, M 2.27, S 2.16, Y 1.81, N 2.01
I24: E 2.17, L 1.65, T 1.58, Y 1.74, F 1.98, K 1.87, M 2.05, P 2.45, Q 2.22, V 1.92, W 2.28, A 1.98, H 2.38, N 2.18, R 1.68, S 1.93, G 2.08, C 1.75, D 2.73
L20: G 2.08, A 1.95, M 1.78, K 2.19, V 1.49, I 1.76, C 1.59, H 1.81, N 1.94, T 1.82, S 1.67, E 2.25, Y 2.26, P 1.78, D 1.97, R 2.18, F 1.3, Q 1.75, W 2.08
R21: F 1.93, K 2.19, M 1.96, C 1.87, T 2.26, G 2.09, N 1.8, L 1.84, V 1.94, D 2.1, Q 1.89, P 2.32, H 1.57, Y 1.75, I 2.16, E 2.17, S 2.97, A 1.66, W 1.93
